Experimental data taken from PMC8053108, “RPA2 winged-helix domain facilitates UNG-mediated removal of uracil from ssDNA; implications for repair of mutagenic uracil at the replication fork” (Nucleic Acids Research, 2021).
pKd: −log10 of the molar value. Blank lines part the entries; values can stand above or below the substance they belong to.

Key:
[1] = biological target: RPA2 (subunit of the RPA trimer) (UniProt P15927); experiment: peptide-bead pull-down, anti-RPA2 blot
[2] = biological target: RPA2 (subunit of the RPA trimer) (UniProt P15927); experiment: MST with dye-labelled RPA trimer
[3] = biological target: human replication protein A (RPA) heterotrimer, recombinant (human) (UniProt P27694)
human replication protein A (RPA) heterotrimer, recombinant (human), sequence (P27694 whole entry, chain 1 of 3, the tested form may be a part): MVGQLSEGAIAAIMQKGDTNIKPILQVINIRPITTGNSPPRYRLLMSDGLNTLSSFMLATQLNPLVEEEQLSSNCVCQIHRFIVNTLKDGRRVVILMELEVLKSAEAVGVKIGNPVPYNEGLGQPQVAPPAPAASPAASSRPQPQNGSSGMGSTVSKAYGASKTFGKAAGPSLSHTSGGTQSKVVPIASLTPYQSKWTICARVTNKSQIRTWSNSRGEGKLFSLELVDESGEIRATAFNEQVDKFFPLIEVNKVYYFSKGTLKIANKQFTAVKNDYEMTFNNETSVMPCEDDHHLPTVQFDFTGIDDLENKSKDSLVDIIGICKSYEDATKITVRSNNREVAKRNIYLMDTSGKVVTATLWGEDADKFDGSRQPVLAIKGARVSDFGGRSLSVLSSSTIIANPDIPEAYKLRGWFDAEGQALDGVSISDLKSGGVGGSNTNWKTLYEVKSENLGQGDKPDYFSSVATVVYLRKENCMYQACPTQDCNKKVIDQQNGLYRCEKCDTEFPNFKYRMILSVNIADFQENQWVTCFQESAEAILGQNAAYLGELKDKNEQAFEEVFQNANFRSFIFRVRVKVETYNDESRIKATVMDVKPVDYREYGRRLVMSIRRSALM
human replication protein A (RPA) heterotrimer, recombinant (human), sequence (P15927 whole entry, chain 2 of 3, further chain, the tested form may be a part): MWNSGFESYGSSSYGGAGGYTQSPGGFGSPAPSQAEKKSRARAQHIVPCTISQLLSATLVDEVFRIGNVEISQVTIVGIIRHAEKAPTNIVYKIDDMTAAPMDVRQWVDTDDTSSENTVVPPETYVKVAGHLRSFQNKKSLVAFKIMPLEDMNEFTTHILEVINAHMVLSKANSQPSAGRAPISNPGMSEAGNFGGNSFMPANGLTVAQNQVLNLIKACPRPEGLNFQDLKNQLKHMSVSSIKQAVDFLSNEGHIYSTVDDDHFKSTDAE
human replication protein A (RPA) heterotrimer, recombinant (human), sequence (P35244 whole entry, chain 3 of 3, further chain, the tested form may be a part): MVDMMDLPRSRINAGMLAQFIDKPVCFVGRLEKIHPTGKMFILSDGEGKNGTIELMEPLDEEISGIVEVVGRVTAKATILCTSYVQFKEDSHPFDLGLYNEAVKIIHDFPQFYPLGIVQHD

[4] = biological target: RPA trimer lacking the RPA2 winged-helix domain (RPA-ΔWH) (human) (UniProt P27694)
RPA trimer lacking the RPA2 winged-helix domain (RPA-ΔWH) (human), sequence (P27694 whole entry, stated change not applied, chain 1 of 3, the tested form may be a part): as the sequence (P27694 whole entry, chain 1 of 3, the tested form may be a part) above
RPA trimer lacking the RPA2 winged-helix domain (RPA-ΔWH) (human), sequence (chain, as listed by the source mutant, chain 2 of 3): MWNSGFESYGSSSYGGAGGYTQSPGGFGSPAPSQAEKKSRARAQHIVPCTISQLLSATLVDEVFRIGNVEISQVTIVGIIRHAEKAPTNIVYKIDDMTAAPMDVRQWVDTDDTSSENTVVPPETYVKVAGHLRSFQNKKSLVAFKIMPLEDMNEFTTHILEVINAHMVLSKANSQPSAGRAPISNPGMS
RPA trimer lacking the RPA2 winged-helix domain (RPA-ΔWH) (human), sequence (chain, as listed by the source mutant, chain 3 of 3): as the sequence (P35244 whole entry, chain 3 of 3, further chain, the tested form may be a part) above

[5] = biological target: human replication protein A (RPA) heterotrimer, recombinant (human) (UniProt P27694); remark: listed apart in the source
RPA2 WH (Homo sapiens) [6] = biological target: RPA2 WH (Homo sapiens) (UniProt P15927); experiment: ITC; settings: cited from earlier work
RPA2 WH (Homo sapiens), sequence (P15927 172-270): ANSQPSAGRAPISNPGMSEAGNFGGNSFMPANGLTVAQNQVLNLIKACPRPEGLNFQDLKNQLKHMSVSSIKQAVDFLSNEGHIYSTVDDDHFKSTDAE

RPA2 WH (Homo sapiens) [7] = biological target: RPA2 WH (Homo sapiens) (UniProt P15927); experiment: NMR; settings: cited from earlier work

UNG catalytic domain (UNG-CD), starting at UNG2 aa 93, sequence (P13051 93-313): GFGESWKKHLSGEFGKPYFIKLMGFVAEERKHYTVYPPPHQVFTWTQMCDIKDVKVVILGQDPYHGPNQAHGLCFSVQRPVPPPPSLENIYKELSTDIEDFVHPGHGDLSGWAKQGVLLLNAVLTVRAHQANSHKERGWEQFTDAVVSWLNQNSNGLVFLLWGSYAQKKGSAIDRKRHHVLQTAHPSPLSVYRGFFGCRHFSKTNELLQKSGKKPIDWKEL
UNG2 peptide (16 aa), sequence (P13051 whole entry): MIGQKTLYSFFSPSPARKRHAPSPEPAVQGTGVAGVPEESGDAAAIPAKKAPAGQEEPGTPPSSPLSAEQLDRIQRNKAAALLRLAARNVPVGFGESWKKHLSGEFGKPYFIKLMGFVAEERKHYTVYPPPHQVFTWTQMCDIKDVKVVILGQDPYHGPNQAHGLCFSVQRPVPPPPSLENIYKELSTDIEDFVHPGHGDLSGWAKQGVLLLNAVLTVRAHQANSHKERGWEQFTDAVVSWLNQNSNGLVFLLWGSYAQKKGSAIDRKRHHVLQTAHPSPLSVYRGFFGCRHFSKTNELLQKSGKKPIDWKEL
UNG2 peptide (24 aa), sequence (P13051 whole entry): as above

binding against the reference ([1]; reference: EV-34 unphosphorylated peptide beads, sites T60,S64): weaker
binding against the reference ([1]; reference: pEV-34 (pT60) peptide beads, sites S64): weaker
Substance: UNG2 57-90 (from UniProt P13051) ppEV-34 (pT60, pS64) peptide beads

binding against the reference ([2]; reference: EV-34 unphosphorylated peptide, sites T60): weaker
Substance: UNG2 57-90 (from UniProt P13051) pEV-34 (pT60) peptide

fold decrease in uracil excision from RPA (1 µM)-coated against naked ssDNA (100 nM U10-25*) [3]: 1000 fold
fold increase of enzyme concentration needed to convert similar amounts of dsDNA substrate with 500 nM RPA-ΔWH [4]: 50 fold
fold increase of enzyme concentration needed to convert similar amounts of dsDNA substrate with 500 nM RPA-WT [5]: 200 fold
Substance: UNG catalytic domain (UNG-CD), starting at UNG2 aa 93 (from UniProt P13051-1 93-313) (domain or fragment)

binding against the reference ([2]; reference: EV-34 unphosphorylated peptide, sites T60,S64): weaker
binding against the reference ([2]; reference: pEV-34 (pT60) peptide, sites S64): weaker
Substance: UNG2 57-90 (from UniProt P13051) ppEV-34 (pT60, pS64) peptide

Substance: UNG2 peptide (24 aa) (from UniProt P13051)
pKd (RPA2 WH (Homo sapiens) [6]): 5.18

Substance: UNG2 peptide (16 aa) (from UniProt P13051)
pKd (RPA2 WH (Homo sapiens) [7]): > 6.00

binding against the reference ([1]; reference: EV-34 unphosphorylated peptide beads, sites T60): weaker
Substance: UNG2 57-90 (from UniProt P13051) pEV-34 (pT60) peptide beads
